# From US20260085122A1 (BEONE MEDICINES I, published 2026)
# What was measured:
# [1] = biological target: 2Ig-B7H3 (Cat: B73-H5253) (UniProt Q5ZPR3 29-245); test: SPR (Biacore 8K, 25 C), B7H3 captured by anti-human IgG, VHH as analyte, 1:1 model
# Procedure: (§1) 4Ig-B7H3 (Cat: 11188-H02H) and 2Ig-B7H3 (Cat: B73-H5253) proteins were coupled onto a CM5 Biocore sensor derivatized via amine coupling with anti-human IgG antibody (Cat: 29234600). The VHH fragments were then flowed through at a rate at 40 μl/min. Association of VHH to B7H3 proteins was monitored for 120 seconds and disassociation of VHH in buffer 1×HBS (0.01 M HEPES, pH 7.4, 0.15 M NaCl, 3 mM EDTA, 0.05% v/v surfactant P20) was monitored for more than 120 seconds.
# (§2) Ka and Kd were determined by fitting the real-time sensorgram to a 1:1 binding model using Biacore Insight Evaluation software. Binding disassociation equilibrium constants (KD) were calculated from kinetics rates as follows: […]
# [2] = biological target: T1, 4Ig-B7H3 (Cat: 11188-H02H) (human); test: as above
# T1 construct: also called B7H3-4IG; 4Ig-B7H3 proteins
# T1 sequence (Q5ZPR3 29-461): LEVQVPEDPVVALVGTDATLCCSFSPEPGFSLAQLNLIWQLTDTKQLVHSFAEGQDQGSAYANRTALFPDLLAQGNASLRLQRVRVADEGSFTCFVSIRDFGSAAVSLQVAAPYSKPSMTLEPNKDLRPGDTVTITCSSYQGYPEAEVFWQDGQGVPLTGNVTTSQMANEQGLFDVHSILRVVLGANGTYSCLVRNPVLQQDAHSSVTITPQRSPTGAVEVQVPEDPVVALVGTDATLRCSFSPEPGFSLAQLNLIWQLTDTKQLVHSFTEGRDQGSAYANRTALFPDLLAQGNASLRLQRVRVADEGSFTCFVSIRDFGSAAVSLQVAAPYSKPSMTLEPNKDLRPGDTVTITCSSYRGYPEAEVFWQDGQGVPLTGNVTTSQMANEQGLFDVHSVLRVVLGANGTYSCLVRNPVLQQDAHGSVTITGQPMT
# Procedure: as §1, §2
# Sequence of 2Ig-B7H3 (Cat: B73-H5253) (Q5ZPR3 other isoform, or with tags, fused parts or gaps): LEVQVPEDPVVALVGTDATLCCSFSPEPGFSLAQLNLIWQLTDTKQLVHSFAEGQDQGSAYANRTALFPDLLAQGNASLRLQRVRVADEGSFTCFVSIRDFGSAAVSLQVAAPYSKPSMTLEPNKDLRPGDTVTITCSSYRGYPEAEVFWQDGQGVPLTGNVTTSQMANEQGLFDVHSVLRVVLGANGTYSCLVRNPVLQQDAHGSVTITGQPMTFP
Binder,Kd [1],koff [1],kon [1],Kd [2],koff [2],kon [2]
"VHH1_C002 (VHH, Monovalent VHH fragment with C-terminal 6xHis-tag, no Fc) VHH: EVQLLESGGGLVQPGGSLRLSCAASGFTFSDYHMSWVRQAPGKGLEWVSGILNTGLSPTYAATVTGRFTISRDNSKNTLYLQMNSLRAEDTAVYYCAQGYYRATPSQANRGQGTLVTVSS",0.0433 µM,0.129 s⁻¹,2.99e+06 M⁻¹ s⁻¹,0.00389 µM,0.0096 s⁻¹,2.47e+06 M⁻¹ s⁻¹
"VHH1_C001 (VHH, Monovalent VHH fragment with C-terminal 6xHis-tag, no Fc) VHH: EVQLVESGGGLVQPGGSLRLSCAASPRTFQTYFMGWFRQAPGKELEWVSVINWSGGTSYYKDSVKGRFTISRDNSKNTLYLQMNSLRAEDTAVYYCAAKGSGTYDREGEYDYWGQGTLVTVSS",0.0941 µM,0.27 s⁻¹,2.87e+06 M⁻¹ s⁻¹,0.00741 µM,0.00677 s⁻¹,914000 M⁻¹ s⁻¹
